# T1: recombinant human BCMA-his fusion protein (ACRO Biosystem, Cat. No. BCA-H522y) (human, UniProt Q02223 1-54)
# T1 construct: extracellular domain; Bought protein; also called huBCMA-his; hu BCMA-his; not shown: His tag
# T1 sequence (looked up): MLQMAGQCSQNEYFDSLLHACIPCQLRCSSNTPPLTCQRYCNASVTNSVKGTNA
# T2: human BCMA on cells (NCI-H929, U266B1, HEK293 huBCMA) (human, UniProt Q02223 1-184)
# T2 construct: whole, on cells; also called cell surface BCMA antigen
# T2 sequence (looked up): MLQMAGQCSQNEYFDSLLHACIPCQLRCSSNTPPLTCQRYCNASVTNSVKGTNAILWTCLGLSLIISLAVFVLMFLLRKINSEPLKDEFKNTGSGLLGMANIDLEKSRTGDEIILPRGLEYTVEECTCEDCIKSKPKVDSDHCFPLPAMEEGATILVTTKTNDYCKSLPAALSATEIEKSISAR
# T3: recombinant human BCMA-mFc fusion protein (human; mouse)
# T3 construct: also called huBCMA-mFc
# T3 chain: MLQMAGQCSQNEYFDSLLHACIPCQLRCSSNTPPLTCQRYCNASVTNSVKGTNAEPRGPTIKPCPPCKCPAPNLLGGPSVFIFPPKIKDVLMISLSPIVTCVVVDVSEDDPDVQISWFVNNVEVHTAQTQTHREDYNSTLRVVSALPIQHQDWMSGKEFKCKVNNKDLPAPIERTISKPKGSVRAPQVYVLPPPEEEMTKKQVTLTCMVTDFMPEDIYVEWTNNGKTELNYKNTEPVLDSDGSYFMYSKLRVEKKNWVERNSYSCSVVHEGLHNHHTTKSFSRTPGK
# B1: human-mouse chimeric antibody c-mAb1 (antibody, human IgG1, V domains shown)
# VH: EVQLQQSGPELVKPGTSVEMSCKASGYTFTDYNIHWVRQRHGESLEWLGYINPNNGVTNFNQKFKGKATLTVNKSSSTAYMELRSLTSDDSAVYYCSSGLFDGYPFPYWGQGTLVTVSA
# VL: DIVLTQSPASLVVSLGQRATISCRASKSVSTSGYNYIHWYQQKPGQPPKLLIFLASNLKSGVPARFSGGGSGTDFTLNIHPVEEDDAATYFCQHNRELPYTFGGGTKVEIK
# notes: not shown: human IgG1 heavy chain constant region, GenBank No. AK303185.1; human kappa light chain constant region, GenBank No. MG815648.1
# B2: mouse monoclonal antibody 211B11H10G5 (antibody, V domains shown)
# VH: EVQLQQSGPELVKPGASVKILCKASGYTITDYNMDWVKRSHGKSLEWIGNINPHNGGSIYNQKFKGKATLTVDKSSSTAFMELRSLTSEDTAVYYCARGDATLVLDYWGQGTSLTVSS
# VL: DIVLTQSPASLAVSLGQRATISCRASKSVSTSGLSYMHWYQQKPGQPPKVLIYLASNLESGVPARFSGSGSGTDFTLNIHPVEEEDAATYYCQHSRELPPTFGAGTKLELK
# notes: detected with anti-mouse IgG; also called Clone 211B11H10G5; BCMA-HC3/BCMA-LC3
# Tests used:
# [1] = molecular target: T1, recombinant human BCMA-his fusion …; experiment: competitive ELISA, coated huBCMA-his, competitor APRIL-biotin
# Procedure: (§1) The 96-well microplate was treated with 100 μL of 0.5 μg/mL huBCMA-his in PBS and incubated overnight at 4° C. The plate was then washed thrice with PBS washing buffer containing 0.1% of Tween-20 and blocked with 300 μL of PBS containing 1% of BSA for 2 h. 100 μL of each BCMA antibody was added to the plate. […] The plate was incubated at 37° C. for 1 h, and unbound secondary antibody was washed with PBS washing buffer containing 0.1% of Tween-20. The TMB chromogenic solution was added at 100 μL/well. After a 5-min reaction at room temperature, 2 M H₂SO₄ was added at 100 μL/well to terminate the reaction. The microplate was placed on a microplate reader (Molecular Devices, SPECTRA Max plus 384) and the absorbance OD450 value was read at 450 nm wavelength.
# [2] = molecular target: T1, recombinant human BCMA-his fusion …; experiment: ELISA, coated antigen
# Procedure: Procedures: huBCMA-his and cynoBCMA-his antigens were prepared into 0.5 μg/mL coating solutions with PBS (pH 7.4). The coating solutions were added to a microplate at 100 μL/well and incubated at 4° C. overnight. The residual coating solution was discarded before 3% BSA was added at 300 μL/well, and the plate was blocked for 3 h at room temperature. The microplate was washed once with PB ST at 300 The stock humanized monoclonal antibody solutions were serially 3-fold diluted to the 11th concentration. The dilutions were added to the microplate at 100 μL/well. After a 1-h incubation at room temperature, the microplate was washed thrice with PBST at 300 The HRP-conjugated 6*His, His-Tag antibody was 25,000-fold diluted with 1% BSA-PBST and added at 100 After another 1-h incubation at room temperature, the microplate was washed thrice with PB ST at 300 μL/well and dried. The TMB chromogenic solution was added at 100 μL. After a 5-min reaction at room temperature, 2 M H2504 was added at 100 μL/well to terminate the reaction. The microplate was placed on a microplate reader (Molecular Devices, SPECTRA Max plus 384) and the absorbance OD450 value was read at 450 nm wavelength.
# [3] = molecular target: T2, human BCMA on cells (NCI-H929, U266B1, …); experiment: flow cytometry on U266B1 cells
# Procedure: (§2) Procedures: The cells were resuspended in PBS, and the cell density was adjusted to 2×10^5 cells/well. Human-mouse chimeric monoclonal antibodies were added to a 96-well plate at 50 μL/well and serially 3-fold diluted from 3000 nM to the 9th concentration. The plate was incubated for 1 h at 4° C. 150 μL of precooled PBS containing 1% of FBS was added into the 96-well plate after the co-incubation with the primary antibody was finished. The mixtures were centrifuged at 300×g for 5 min and the supernatants were discarded. The above procedures were repeated once. The fluorescent secondary antibody PE anti-human IgG Fc (Biolegend, 409304) was added at 80 μL/well. The plate was incubated at 4° C. for 30 min. 150 μL of precooled PBS containing 1% of FBS was added into the 96-well plate after the co-incubation with the secondary antibody was finished. The 96-well plate was centrifuged at 300×g for 5 min and the supernatants were discarded. The above procedures were repeated once. The cells were resuspended in 100 μL of PBS containing 1% of FBS and detected on a flow cytometry (BD Accuri™ C6).
# [4] = molecular target: T1, recombinant human BCMA-his fusion …; experiment: competitive ELISA, coated huBCMA-his, competitor 83A10-biotin, antibody at 7 µg/mL
# [5] = molecular target: T1, recombinant human BCMA-his fusion …; experiment: SPR (Biacore T200), anti-His capture on CM5, 1:1 fit
# Procedure: In this example, the antigen-antibody binding kinetics and affinity were determined by the BIACORE method.
# Procedures: The anti-histidine antibody (GE, His capture Kit, Cat. No. 28995056) was conjugated to the Sereis S Sensor Chip CMS to capture the test articles, thus acquiring the binding kinetic and affinity data of the antigen, as an analyte, to the test articles. The initial concentration for detecting the binding of the antigen and the test articles was 10 nM. […] The Start up flushing process (1×HBS-EP+buffer) was performed at least thrice before loading to equilibrate the system. The association and dissociation tendencies between the antigen and the test articles were detected. When the dissociation was completed, a regeneration reagent was loaded for regeneration before the detection of the next concentration was performed. After the detection was finished, the data were fitted by using a 1:1 Binding fitting mode in data analysis software (Biacore T200 Evaluation Software).
# [6] = molecular target: T1, recombinant human BCMA-his fusion …; experiment: competitive ELISA, coated huBCMA-his, competitor 83A10-biotin
# Procedure: as §1
# [7] = molecular target: T2, human BCMA on cells (NCI-H929, U266B1, …); experiment: flow cytometry on NCI-H929 cells; NCI-H929 cells
# Procedure: as §2
# [8] = molecular target: T3, recombinant human BCMA-mFc fusion …; experiment: indirect ELISA, coated antigen
# Procedure: (§3) Procedures: Human, mouse and monkey BCMA antigens were prepared into 0.5 μg/mL coating solutions with PBS buffer. The coating solutions were added to a microplate at 100 μL/well and incubated at 4° C. overnight. The residual coating solution was discarded before 3% BSA was added at 300 μL/well, and the plate was blocked for 3 h at room temperature. The microplate was washed once with PB ST (PBS containing 0.1% of TWEEN 20) at 300 μL/well. The human-mouse chimeric monoclonal antibodies were serially 3-fold diluted from 10 μg/mL to the 9th concentration. The dilutions were added to the microplate at 100 μL/well. After a 1-h incubation at room temperature, the microplate was washed thrice with PB ST at 300 μL/well. The mouse anti-human IgG Fc antibody [HRP] mAb was 25,000-fold diluted with 1% BSA-PBST and added at 100 μL/well. After another 1-h incubation at room temperature, the microplate was washed thrice with PBST at 300 μL/well and dried. The TMB chromogenic solution was added at 100 μL/well. After a 5-min reaction at room temperature, 2 M H₂SO₄ was added at 100 μL/well to terminate the reaction. The microplate was placed on a microplate reader (Molecular Devices, SPECTRA Max plus 384) and the absorbance OD450 value was read at 450 nm wavelength.
# [9] = molecular target: T2, human BCMA on cells (NCI-H929, U266B1, …); experiment: flow cytometry on NCI-H929 cells
# Procedure: as §2
# [10] = molecular target: T4, cynomolgus monkey BCMA on HEK293 cynoBCMA cells (cynomolgus monkey, UniProt A0A2K5UD97 1-183); experiment: flow cytometry on HEK293 cynoBCMA cells; HEK293 cynoBCMA cells
# T4 construct: whole, on cells
# Procedure: (§4) The affinities of the 3 mouse antibodies for cell surface BCMA antigen were assessed using FACS. Materials: cell lines NCI-H929, U266B1, HEK293 cynoBCMA and HEK293; PBS buffer; FBS (fetal bovine serum; Gibco, 10099141); PE goat anti-mouse IgG Fc (Biolegend, 405307). Procedures: The cells were resuspended in PBS to prepare cell suspensions containing 200,000 cells. Mouse BCMA antibodies were added to a 96-well plate at 50 μL/well and serially 3-fold diluted from 3000 nM. The plate was incubated for 1 h at 4° C. 150 μL of precooled PBS containing 1% of FBS was added into the 96-well plate after the co-incubation with the primary antibody was finished. The mixtures were centrifuged at 300×g for 5 min and the supernatants were discarded. The above procedures were repeated once. The fluorescent secondary antibody PE goat anti-mouse IgG Fc was added at 80 μL/well. The plate was incubated at 4° C. for 30 min. 150 μL of precooled PBS containing 1% of FBS was added into the 96-well plate after the co-incubation with the secondary antibody was finished. The mixtures were uniformly mixed with a pipette. The 96-well plate was centrifuged at 300×g for 5 min in a plate centrifuge and the supernatants were discarded. The above procedures were repeated once. The cells were resuspended in 100 μL of PBS containing 1% of FBS and detected on a flow cytometry (BD Accuri™ C6).
# [11] = molecular target: T5, recombinant human BCMA-huFc fusion protein (human); experiment: indirect ELISA, coated antigen
# T5 construct: also called huBCMA-huFc
# Procedure: as §3, with “PBST” for “PB ST”, “three mouse BCMA” for “human-mouse chimeric monoclonal”, “7th” for “9th”, “HRP goat anti-mouse” for “mouse anti-human”, “IgG” for “IgG Fc”, “antibody” for “antibody [HRP] mAb”
# [12] = molecular target: T6, recombinant cynomolgus monkey BCMA-huFc (cynomolgus monkey; human); experiment: indirect ELISA, coated antigen
# T6 construct: also called cynoBCMA-huFc
# Procedure: as §3, with “PBST” for “PB ST”, “three mouse BCMA” for “human-mouse chimeric monoclonal”, “7th” for “9th”, “HRP goat anti-mouse” for “mouse anti-human”, “IgG” for “IgG Fc”, “antibody” for “antibody [HRP] mAb”
# [13] = molecular target: T2, human BCMA on cells (NCI-H929, U266B1, …); experiment: flow cytometry on NCI-H929 cells; remark: listed apart in the source
# Procedure: as §4
# [14] = molecular target: T2, human BCMA on cells (NCI-H929, U266B1, …); experiment: flow cytometry on U266B1 cells; remark: listed apart in the source
# Procedure: as §4
# T6 sequence (chain, as listed by the source limits assumed): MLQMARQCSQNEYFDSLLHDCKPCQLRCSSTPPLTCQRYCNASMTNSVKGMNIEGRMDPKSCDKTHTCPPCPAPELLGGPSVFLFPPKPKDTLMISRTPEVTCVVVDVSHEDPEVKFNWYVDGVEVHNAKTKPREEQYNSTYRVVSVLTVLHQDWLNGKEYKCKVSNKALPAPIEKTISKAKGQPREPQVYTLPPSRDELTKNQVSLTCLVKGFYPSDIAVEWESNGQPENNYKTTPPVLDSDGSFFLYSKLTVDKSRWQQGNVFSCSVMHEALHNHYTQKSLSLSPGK
# T4 sequence (A0A2K5UD97 entry or part of it): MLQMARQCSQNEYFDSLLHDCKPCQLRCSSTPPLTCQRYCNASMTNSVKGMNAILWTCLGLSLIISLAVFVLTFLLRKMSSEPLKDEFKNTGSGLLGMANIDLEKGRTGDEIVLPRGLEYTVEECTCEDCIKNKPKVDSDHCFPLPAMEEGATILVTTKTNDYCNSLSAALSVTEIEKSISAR
Binder,IC50 [1],EC50 [2],EC50 [3],competition [4],Kd [5],koff [5],kon [5],IC50 [6],EC50 [7],EC50 [8],EC50 [9],EC50 [10],EC50 [11],EC50 [12],EC50 [13],EC50 [14]
B1,0.0114 µg/mL,0.00158 nM,1.9 nM,70%,0.247 nM,0.00202 s⁻¹,8.18e+06 M⁻¹ s⁻¹,3.16 µg/mL,7.5 nM,0.647 nM,7.5 nM,–,–,–,–,–
B2,–,–,–,–,–,–,–,–,–,–,–,30.9 nM,0.0492 nM,0.0309 nM,11.9 nM,24.5 nM

# — patent publication US20240117061A1 (WUHAN YZY BIOPHARMA, published 2024)
